Laboratory results reported in EP4671273A1 (Anaveon AG, dated 2025).

What was measured:
[1] = target: recombinant human IL-21 (rhIL-21) (human, UniProt Q9HBE4 30-162, limits assumed); assay: cell-based or functional assay
[2] = target: T1, Recombinant hIL-21-Fc (AcroBiosystems) (human, UniProt Q9HBE4 30-162); assay: SPR, Fab on captured rhIL-21-Fc
T1 construct: bought; also called rhIL-21; not shown: Fc of the bought reagent, not described

[3] = target: T2, human PD-1 (#PD1-H82E4, AcroBiosystems) (human, UniProt Q15116 25-167); assay: SPR, PD-1 on captured IgG1
T2 construct: bought

[4] = target: T3, cynomolgus PD-1 (#PD1-C52H5, AcroBiosystems) (cynomolgus monkey, UniProt B0LAJ3 25-170); assay: SPR, PD-1 on captured IgG1
T3 construct: bought; also called cynomolgus monkey PD-1; not shown: the vendor's tag on the recombinant protein (AcroBiosystems #PD1-C52H5)
T3 sequence (B0LAJ3 entry or part of it limits assumed, form in doubt): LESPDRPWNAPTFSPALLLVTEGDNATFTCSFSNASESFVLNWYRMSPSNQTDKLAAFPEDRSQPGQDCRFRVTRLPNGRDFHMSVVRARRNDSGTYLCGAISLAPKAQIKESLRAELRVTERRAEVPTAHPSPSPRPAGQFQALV

recombinant human IL-21 (rhIL-21), sequence (Q9HBE4 30-162 limits assumed): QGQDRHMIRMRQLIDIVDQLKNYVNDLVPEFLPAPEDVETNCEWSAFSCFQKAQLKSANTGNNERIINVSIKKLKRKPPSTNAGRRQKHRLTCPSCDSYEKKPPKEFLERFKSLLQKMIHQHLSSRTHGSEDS
T1 sequence (Q9HBE4 30-162): as the sequence (Q9HBE4 30-162 limits assumed) above
T2 sequence (Q15116 25-167 limits assumed): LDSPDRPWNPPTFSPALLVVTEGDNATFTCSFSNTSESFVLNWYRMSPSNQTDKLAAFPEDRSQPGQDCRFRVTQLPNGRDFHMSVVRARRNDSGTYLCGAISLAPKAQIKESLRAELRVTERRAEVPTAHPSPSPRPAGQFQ

Binder | Kd [3] | koff [3] | kon [3] | Kd [4] | koff [4] | kon [4] | also measured
LKK631 (antibody, human IgG1, V domains shown) VH: EVQLQQFGAEVVKPGASVKMSCKASGYTFTDYNMNWVKQSHEKSLEWIGDIHPKFHSTNYNQKFKGKATLTIDTSSSTAYMELRNLTSEDTAVYYCARVGNYVYFVMDYWGQGTSVTVSS VL: SIVMTQTPKFLLVSAGDRVTITCKASQSVSNDVAWYQQKPGQSPKLLIYYASNRYTGVPDRFSGSGYGTDFTFTISTVQAEDLAVYFCQQDYTSPWTFGGGTKLEIK |  |  |  |  |  |  | % pSTAT3+ Jurkat cells, 0.1 nM rhIL-21 + 0 nM antibody [1]: 82.1%; % pSTAT3+ Jurkat cells, 0.1 nM rhIL-21 + 0.1012 nM antibody [1]: 81%; % pSTAT3+ Jurkat cells, 0.1 nM rhIL-21 + 0.1602 nM antibody [1]: 72.4%; % pSTAT3+ Jurkat cells, 0.1 nM rhIL-21 + 0.2536 nM antibody [1]: 71.4%; % pSTAT3+ Jurkat cells, 0.1 nM rhIL-21 + 0.4015 nM antibody [1]: 71.5%; % pSTAT3+ Jurkat cells, 0.1 nM rhIL-21 + 0.6355 nM antibody [1]: 65.6%; % pSTAT3+ Jurkat cells, 0.1 nM rhIL-21 + 1.006 nM antibody [1]: 69.5%; % pSTAT3+ Jurkat cells, 0.1 nM rhIL-21 + 1.5925 nM antibody [1]: 58.7%; % pSTAT3+ Jurkat cells, 0.1 nM rhIL-21 + 2.5209 nM antibody [1]: 55.1%; % pSTAT3+ Jurkat cells, 0.1 nM rhIL-21 + 3.9906 nM antibody [1]: 42%; % pSTAT3+ Jurkat cells, 0.1 nM rhIL-21 + 6.3171 nM antibody [1]: 44.5%; % pSTAT3+ Jurkat cells, 0.1 nM rhIL-21 + 10 nM antibody [1]: 41.1%
MIZ926 (antibody, human IgG1, V domains shown) VH: EVQLVESGGGSVKPGGSLKLSCAASGLTFSHYYMYWVRQTPEKRLEWVAIISDGGDYTHYSDSVKGRFTISRDNAKNNLYLQMSSLQSEDTAMYYCAGDYGYGYEGWFAYWGQGTLVTVST VL: DIVMTQSQKFMSTSVGDRVSVTCKASQNVDTYVAWYQQKPGQSPKALIYSTSYRYSGVPDRFTGSGSGTDFTLTISNVQSEDLAEYFCQQYNSYPWTFGGGTKLEIK |  |  |  |  |  |  | % pSTAT3+ Jurkat cells, 0.1 nM rhIL-21 + 0 nM antibody [1]: 82.5%; % pSTAT3+ Jurkat cells, 0.1 nM rhIL-21 + 0.1012 nM antibody [1]: 75.1%; % pSTAT3+ Jurkat cells, 0.1 nM rhIL-21 + 0.1602 nM antibody [1]: 72.4%; % pSTAT3+ Jurkat cells, 0.1 nM rhIL-21 + 0.2536 nM antibody [1]: 70.7%; % pSTAT3+ Jurkat cells, 0.1 nM rhIL-21 + 0.4015 nM antibody [1]: 69.9%; % pSTAT3+ Jurkat cells, 0.1 nM rhIL-21 + 0.6355 nM antibody [1]: 68.5%; % pSTAT3+ Jurkat cells, 0.1 nM rhIL-21 + 1.006 nM antibody [1]: 65.3%; % pSTAT3+ Jurkat cells, 0.1 nM rhIL-21 + 1.5925 nM antibody [1]: 64.8%; % pSTAT3+ Jurkat cells, 0.1 nM rhIL-21 + 2.5209 nM antibody [1]: 64.5%; % pSTAT3+ Jurkat cells, 0.1 nM rhIL-21 + 3.9906 nM antibody [1]: 61.8%; % pSTAT3+ Jurkat cells, 0.1 nM rhIL-21 + 6.3171 nM antibody [1]: 57.5%; % pSTAT3+ Jurkat cells, 0.1 nM rhIL-21 + 10 nM antibody [1]: 57.5%
ZAP122 (antibody, human IgG1, V domains shown) VH: QVQLQESGPGLVKPSETLSLTCTVSGGSISSDFWGWIRQPPGKGLEWIGYISSRGSTNYNPSLKRRVTISVDTSRNQFSLKLSSVTAADTAVYYCARSAGVTDFDFWGQGTLVTVSS VL: DIQMTQSPSSVSASVGDRVTITCRASQGISSWLAWYQHKPGKAPKLLIYVASSLQSGVPSRFSGSGSGTDFTLTISSLQPEDFATYYCQQANSFPLTFGGGTKVEIK |  |  |  |  |  |  | % pSTAT3+ Jurkat cells, 0.1 nM rhIL-21 + 0 nM antibody [1]: 82%; % pSTAT3+ Jurkat cells, 0.1 nM rhIL-21 + 0.1012 nM antibody [1]: 33.3%; % pSTAT3+ Jurkat cells, 0.1 nM rhIL-21 + 0.1602 nM antibody [1]: 33.2%; % pSTAT3+ Jurkat cells, 0.1 nM rhIL-21 + 0.2536 nM antibody [1]: 18.2%; % pSTAT3+ Jurkat cells, 0.1 nM rhIL-21 + 0.4015 nM antibody [1]: 22.8%; % pSTAT3+ Jurkat cells, 0.1 nM rhIL-21 + 0.6355 nM antibody [1]: 33%; % pSTAT3+ Jurkat cells, 0.1 nM rhIL-21 + 1.006 nM antibody [1]: 10.8%; % pSTAT3+ Jurkat cells, 0.1 nM rhIL-21 + 1.5925 nM antibody [1]: 9.01%; % pSTAT3+ Jurkat cells, 0.1 nM rhIL-21 + 2.5209 nM antibody [1]: 6.78%; % pSTAT3+ Jurkat cells, 0.1 nM rhIL-21 + 3.9906 nM antibody [1]: 5.32%; % pSTAT3+ Jurkat cells, 0.1 nM rhIL-21 + 6.3171 nM antibody [1]: 8.64%; % pSTAT3+ Jurkat cells, 0.1 nM rhIL-21 + 10 nM antibody [1]: 6.63%
ZAP122p2 Fab (Fab, V domains shown, Fab) VH: QVQLQESGPGLVKPSETLSLTCTVSGGSISSDFWGWIRQPPGKGLEWIGYISSRGSTNYNPSLKRRVTISVDTSRNQFSLKLSSVTAADTAVYYCARSAGVTDFDFWGQGTLVTVSS VL: DIQMTQSPSSVSASVGDRVTITCRASQGISSWLAWYQHKPGKAPKLLIYVASSLQSGVPSRFSGSGSGTDFTLTISSLQPEDFATYYCQQASSFPLTFGGGTKVEIK |  |  |  |  |  |  | Kd [2]: 0.0328 nM; koff [2]: 1.14e-05 s⁻¹; kon [2]: 348000 M⁻¹ s⁻¹
XVT458-z2-m6 (antibody, human IgG1, V domains shown, human IgG1; also called anti-PD-1 antibody clone XVT458-z2-m6) VH: VQLVQSGAEVKKPGASVKVSCKASGYTFTNFYIHWVRQAPGQGLEWMGSIYPNYGITAYNQKFKDRVTMTVDTSTSTAYMELRSLRSDDTAVYYCARGYSYAMDYWGQGTTVTVSS VL: DIQMTQSPSSVSASVGDRVTITCSASQGISGDLNWYQQKPGKAPKLLIYHTSQLHSDVPSRFSGSGSGTDFTLTISSLQPEDFATYYCQGYSKDLLTFGGGTKLEIK | 0.522 nM | 0.000174 s⁻¹ | 333000 M⁻¹ s⁻¹ | 0.306 nM | 0.000153 s⁻¹ | 499000 M⁻¹ s⁻¹ | 
KOB135 (antibody, human IgG1, V domains shown, human IgG1) VH: VQLVQSGAEVKKPGASVKVSCKASGYTFTNFYIHWVRQAPGQGLEWMGSIYPNYGITAYNQKFKDRVTMTVDTSTSTAYMELRSLRSDDTAVYYCARGYSYAMDYWGQGTTVTVSS VL: DIQMTQSPSSVSASVGDRVTITCSASQGISGDLNWYQQKPGKAPKLLIYHTSQQHSDVPSRFSGSGSGTDFTLTISSLQPEDFATYYCQGYSKDLLTFGGGTKLEIK | 0.506 nM | 0.000166 s⁻¹ | 329000 M⁻¹ s⁻¹ | 0.362 nM | 0.000179 s⁻¹ | 495000 M⁻¹ s⁻¹ | 
PEV057 (antibody, human IgG1, V domains shown, human IgG1) VH: VQLVQSGAEVKKPGASVKVSCKASGYTFTNFYIHWVRQAPGQGLEWMGSIYPNYGITAYNQKFKDRVTMTVDTSTSTAYMELRSLRSDDTATYYCARGYSYAMDYWGQGTTVTVSS VL: DIQMTQSPSSVSASVGDRVTITCSASQGISGDLNWYQQKPGKAPKLLIYHTSQLHSDVPSRFSGSGSGTDFTLTISSLQPEDFATYYCQGYSKDLLTFGGGTKLEIK | 0.521 nM | 0.000189 s⁻¹ | 363000 M⁻¹ s⁻¹ | 0.327 nM | 0.00016 s⁻¹ | 489000 M⁻¹ s⁻¹ | 
ACH836 (antibody, human IgG1, V domains shown, human IgG1) VH: VQLVQSGAEVKKPGASVKVSCKASGYTFTNFYIHWVRQAPGQGLEWMGSIYPNYGITAYNQKFKDRVTMTVDTSTSTAYMELRSLRSDDTAVYYCARGYSYAMDYWGQGTTVTVSS VL: DIQMTQSPSSVSASVGDRVTITCSASQGASGDLNWYQQKPGKAPKLLIYHTSQLHSDVPSRFSGSGSGTDFTLTISSLQPEDFATYYCQGYSKDLLTFGGGTKLEIK | 0.342 nM | 0.000117 s⁻¹ | 344000 M⁻¹ s⁻¹ | 0.205 nM | 0.000101 s⁻¹ | 493000 M⁻¹ s⁻¹ | 
ICW519 (antibody, human IgG1, V domains shown, human IgG1) VH: VQLVQSGAEVKKPGASVKVSCKASGYTFTNFYIHWVRQAPGQGLEWMGSIYPNYGITAYNQKFQDRVTMTVDTSTSTAYMELRSLRSDDTAVYYCARGYSYAMDYWGQGTTVTVSS VL: DIQMTQSPSSVSASVGDRVTITCSASQGISGDLNWYQQKPGKAPKLLIYHTSQLHSDVPSRFSGSGSGTDFTLTISSLQPEDFATYYCQGYSKDLLTFGGGTKLEIK | 0.511 nM | 0.000187 s⁻¹ | 365000 M⁻¹ s⁻¹ | 0.296 nM | 0.000176 s⁻¹ | 592000 M⁻¹ s⁻¹ | 
BBJ602 (antibody, human IgG1, V domains shown, human IgG1) VH: VQLVQSGAEVKKPGASVKVSCKASGYTFTNFYIHWVRQAPGQGLEWMGSIYPNYGITAYNQKFKDRVTMTVDTSTSTAYMELRSLRSDDTAVYYCARGYSYGMDYWGQGTTVTVSS VL: DIQMTQSPSSVSASVGDRVTITCSASQGISGDLNWYQQKPGKAPKLLIYHTSQLHSDVPSRFSGSGSGTDFTLTISSLQPEDFATYYCQGYSKDLLTFGGGTKLEIK | 18.1 nM | 0.0278 s⁻¹ | 1.54e+06 M⁻¹ s⁻¹ | 8.53 nM | 3.15 s⁻¹ | 3.69e+08 M⁻¹ s⁻¹ | 
OKM590 (antibody, human IgG1, V domains shown, human IgG1) VH: VQLVQSGAEVKKPGASVKVSCKASGYTFTNFYIHWVRQAPGQGLEWMGSIYPNYGITAYNQKFKDRVTMTVDTSTSTAYMELRSLRSDDTAVYYCARGYSYAMDVWGQGTTVTVSS VL: DIQMTQSPSSVSASVGDRVTITCSASQGISGDLNWYQQKPGKAPKLLIYHTSQLHSDVPSRFSGSGSGTDFTLTISSLQPEDFATYYCQGYSKDLLTFGGGTKLEIK | 0.955 nM | 0.00039 s⁻¹ | 409000 M⁻¹ s⁻¹ | 0.627 nM | 0.000345 s⁻¹ | 551000 M⁻¹ s⁻¹ | 

More lines, main results first:

Kd [3] | koff [3] | kon [3] | Kd [4] | koff [4] | kon [4] | Binder | also measured
0.955 nM | 0.000406 s⁻¹ | 426000 M⁻¹ s⁻¹ | 0.541 nM | 0.000297 s⁻¹ | 549000 M⁻¹ s⁻¹ | NRT742 (antibody, human IgG1, V domains shown, human IgG1) VH: VQLVQSGAEVKKPGASVKVSCKASGYTFTNFYIHWVRQAPGQGLEWMGSIYPNYGITAYNQKFKDRVTMTVDTSTSTAYMELRSLRSDDTAVYYCARGYSYAMDYWGQGTTVTVSS VL: DIQMTQSPSSVSASVGDRVTITCSASQGISGDLNWYQQKPGKAPKLLIYHASQLHSDVPSRFSGSGSGTDFTLTISSLQPEDFATYYCQGYSKDLLTFGGGTKLEIK | 
0.429 nM | 0.000144 s⁻¹ | 336000 M⁻¹ s⁻¹ | 0.246 nM | 0.000124 s⁻¹ | 504000 M⁻¹ s⁻¹ | JPK663 (antibody, human IgG1, V domains shown, human IgG1) VH: VQLVQSGAEVKKPGASVKVSCKASGYTFTNFYIHWVRQAPGQGLEWMGSIYPNYGITAYNQKFKDRVTMTVDTSTSTAYMELRSLRSDDTAVYYCARGYSYAMDYWGQGTTVTVSS VL: DIQMTQSPSSVSASVGDRVTATCSASQGISGDLNWYQQKPGKAPKLLIYHTSQLHSDVPSRFSGSGSGTDFTLTISSLQPEDFATYYCQGYSKDLLTFGGGTKLEIK | 
0.606 nM | 0.000121 s⁻¹ | 200000 M⁻¹ s⁻¹ | 0.86 nM | 0.000203 s⁻¹ | 236000 M⁻¹ s⁻¹ | DKR699 (antibody, human IgG1, V domains shown, human IgG1) VH: VQLVQSGAEVKKPGASVKVSCKASGYTFTNFYIHWVRQAPGQGLEWMGSIYPNYGDTAYNQKFKDRVTMTVDTSTSTAYMELRSLRSDDTAVYYCARGYSYAMDYWGQGTTVTVSS VL: DIQMTQSPSSVSASVGDRVTITCSASQGISGDLNWYQQKPGKAPKLLIYHTSQLHSDVPSRFSGSGSGTDFTLTISSLQPEDFATYYCQGYSKDLLTFGGGTKLEIK | 
